How the values were obtained:
[1] = molecular target: T1, human CD3 on cells (Jurkat cells, primary human CD8+ T cells) (human, UniProt P07766 23-207; P04234 22-171; P20963 22-164; P09693 23-182); assay: flow cytometry, Jurkat cells (human CD3), median EC50, n=5
T1 construct: CD3 complex as part of the TCR on T cells; also called hCD3; Jurkat-hCD3
Experimental: (§1) Flow cytometric analysis was utilized to determine binding of BCMA×CD3 bispecific antibodies to human and cynomolgus CD3 (Jurkat cells, mfCD3 engineered Jurkat cells, primary human CD8+ and cynomolgus CD8+ T cells). Briefly, 1e05 cells/well were incubated in the presence of FACS wash with block (PBS+1% filtered FBS+5% mouse serum) with a serial dilution of BCMA×CD3 and control antibodies for 30 minutes on ice. After incubation, the cells were washed twice with cold FACS wash (PBS+1% filtered FBS) and bound antibody was detected by incubating with Alexa647-conjugated anti-human secondary antibody on ice for an additional 30 minutes. Wells containing no antibody or secondary only were used as a control. For the detection of monkey and human T cells, a cocktail of human and cynomolgus cross-reactive antibodies to CD4, CD8 and CD16 was added to the anti-human secondary. After incubation, cells were washed, re-suspended in 200 μL cold PBS containing 1% filtered FBS and analyzed by flow cytometry on a BD FACS Canto II. Cells were gated by FSC-H by FSC-A to select singlet events, followed by side and forward scatters to select for live events. For monkey T cells, additional gating on CD8+/CD16-cells was performed.
(§2) EC50 values for FACS binding were calculated using 4-parameter non-linear regression analysis in Prism software.

[2] = molecular target: T2, human BCMA on the surface of cell lines (NCI-H929, MM.1S, OPM-2, RPMI-8226, Daudi, Raji, MOLP-8, U266) (human, UniProt Q02223 1-184); assay: cell-based or functional assay
T2 sequence: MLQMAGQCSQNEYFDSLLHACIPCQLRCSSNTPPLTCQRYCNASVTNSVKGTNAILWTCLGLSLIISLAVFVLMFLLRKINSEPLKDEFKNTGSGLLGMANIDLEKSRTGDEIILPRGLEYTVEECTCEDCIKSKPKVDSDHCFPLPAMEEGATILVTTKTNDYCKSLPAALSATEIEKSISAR

[3] = molecular target: T2, human BCMA on the surface of cell lines …; assay: cell-based or functional assay; remark: listed apart in the source
[4] = molecular target: T2, human BCMA on the surface of cell lines …; assay: cell-based or functional assay; remark: listed apart in the source
[5] = molecular target: T2, human BCMA on the surface of cell lines …; assay: cell-based or functional assay; remark: listed apart in the source
[6] = molecular target: T1, human CD3 on cells (Jurkat cells, …); assay: flow cytometry, primary human CD8+ T cells, median EC50, n=1
Experimental: as §1, §2

[7] = molecular target: T2, human BCMA on the surface of cell lines …; assay: cell-based or functional assay; remark: listed apart in the source
[8] = molecular target: T3, mouse BCMA-MFC (BCMA with C-terminal mFc tag) (mouse); assay: SPR Biacore, 25 C, mAb captured via anti-hFc
T3 construct: Tested at a single concentration of 30 nM; also called mBCMA.mFc
T3 chain: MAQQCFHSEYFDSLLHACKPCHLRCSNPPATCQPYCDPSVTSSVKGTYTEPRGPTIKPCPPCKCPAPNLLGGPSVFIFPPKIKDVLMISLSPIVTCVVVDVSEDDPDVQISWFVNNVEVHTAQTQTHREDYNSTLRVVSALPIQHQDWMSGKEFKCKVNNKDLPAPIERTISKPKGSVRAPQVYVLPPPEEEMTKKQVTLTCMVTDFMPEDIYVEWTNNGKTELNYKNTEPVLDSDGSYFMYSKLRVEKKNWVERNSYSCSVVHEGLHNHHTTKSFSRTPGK
Experimental: (§3) The CM5 Biacore sensor surface was derivatized by amine coupling with a monoclonal mouse anti-human Fc antibody (GE, #BR-1008-39) to capture purified anti-BCMA mAbs and anti-BCMA×anti-CD3 bispecific mAbs. All Biacore binding studies were performed in a buffer composed of 0.01M HEPES pH 7.4, 0.15M NaCl, 3 mM EDTA, 0.05% v/v Surfactant P20 (HBS-ET running buffer). […] Antigen samples were then injected over the anti-BCMA and anti-BCMA×anti-CD3 bispecific mAbs captured surfaces at a flow rate of 30 μL/minute. Antibody-reagent association was monitored for 5 minutes while dissociation in HBS-ET running buffer was monitored for 10 minutes. All of the binding kinetics experiments were performed at 25° C. Kinetic association (kₐ) and dissociation (kd) rate constants were determined by fitting the real-time sensorgrams to a 1:1 binding model using Scrubber 2.0c curve fitting software. Binding dissociation equilibrium constants (KD) and dissociative half-lives (t1/2) were calculated from the kinetic rate constants as: […]

[9] = molecular target: T4, monkey BCMA-MFC (monkey BCMA with C-terminal mFc tag) (monkey); assay: SPR Biacore, 25 C, mAb captured via anti-hFc
T4 construct: also called mfBCMA.mFc
T4 sequence (chain, as listed by the source limits assumed): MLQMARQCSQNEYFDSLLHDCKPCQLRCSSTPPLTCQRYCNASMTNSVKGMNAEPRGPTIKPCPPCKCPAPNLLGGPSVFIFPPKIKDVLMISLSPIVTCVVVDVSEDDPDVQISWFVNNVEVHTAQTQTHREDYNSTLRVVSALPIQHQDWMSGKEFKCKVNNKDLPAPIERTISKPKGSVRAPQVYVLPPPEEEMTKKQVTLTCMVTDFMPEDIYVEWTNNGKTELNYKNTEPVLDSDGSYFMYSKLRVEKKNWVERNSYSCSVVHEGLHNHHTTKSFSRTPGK
Experimental: as §3

T1 sequence (P07766 23-207 limits assumed, chain 1 of 4): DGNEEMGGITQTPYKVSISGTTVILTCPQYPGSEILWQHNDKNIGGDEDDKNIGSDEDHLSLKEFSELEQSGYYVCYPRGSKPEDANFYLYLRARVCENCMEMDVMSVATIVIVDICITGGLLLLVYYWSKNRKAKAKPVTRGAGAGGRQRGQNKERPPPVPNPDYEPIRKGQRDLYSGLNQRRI
T1 sequence (P04234 22-171 limits assumed, chain 2 of 4): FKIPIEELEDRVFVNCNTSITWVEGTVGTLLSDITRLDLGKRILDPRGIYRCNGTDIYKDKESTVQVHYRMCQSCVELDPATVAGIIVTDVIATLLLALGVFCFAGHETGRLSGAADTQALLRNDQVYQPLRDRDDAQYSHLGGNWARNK
T1 sequence (P20963 22-164 limits assumed, chain 3 of 4): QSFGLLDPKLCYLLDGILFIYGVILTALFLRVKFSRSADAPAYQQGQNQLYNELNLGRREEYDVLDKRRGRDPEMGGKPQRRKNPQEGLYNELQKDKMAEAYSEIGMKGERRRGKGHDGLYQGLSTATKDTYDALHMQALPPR
T1 sequence (P09693 23-182 limits assumed, chain 4 of 4): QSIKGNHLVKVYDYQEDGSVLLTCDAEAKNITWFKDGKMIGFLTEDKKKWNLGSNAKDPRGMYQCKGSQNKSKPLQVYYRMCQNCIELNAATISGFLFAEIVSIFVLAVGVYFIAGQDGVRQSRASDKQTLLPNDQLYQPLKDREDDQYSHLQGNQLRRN

Binder	EC50 [1] [nM]	Median EC50, % Survival of Molp8 target cells, human effector cells [2] [nM]	Median EC50, % Survival of RPMI8226 target cells, human effector cells [2] [nM]	Median EC50, % T activation with Molp8 target cells, human effector cells [2] [nM]	Median EC50, % T activation with RPMI8226 target cells, human effector cells [2] [nM]	EC50, Jurkat/NFATLuc reporter activation with MOLP-8 cells [3] [nM]	EC50, Jurkat/NFATLuc reporter activation with RPMI-8226 cells [3] [nM]	EC50, Jurkat/NFATLuc reporter activation with Raji cells [3] [nM]	Median EC50, % Survival of H929 target cells, human effector cells [4] [nM]	Median EC50, % Survival of MM1S target cells, human effector cells [4] [nM]	Median EC50, % Survival of U266 target cells, human effector cells [4] [nM]	Median EC50, % T activation with H929 target cells, human effector cells [4] [nM]	Median EC50, % T activation with MM1S target cells, human effector cells [4] [nM]	Median EC50, % T activation with U266 target cells, human effector cells [4] [nM]	Median EC50, % Survival of H929 target cells, cynomolgus effector cells [5] [nM]	Median EC50, % T activation with H929 target cells, cynomolgus effector cells [5] [nM]	EC50 [6] [nM]	EC50, Jurkat/NFATLuc reporter activation with Daudi cells [7] [nM]	EC50, Jurkat/NFATLuc reporter activation with MM1-S cells [7] [nM]	EC50, Jurkat/NFATLuc reporter activation with NCI-H929 cells [7] [nM]	further results
bsAb25441D bispecific antibody (REGN5458), anti-BCMA x anti-CD3 (bispecific antibody, human IgG4 S228P, kappa, Anti-BCMA arm from mAb21581, anti-CD3 arm and common light chain from mAb7221G; also called bsAb25441D9; mAb25441D) heavy 1: EVQLVESGGGLVQPGGSLRLSCAASGFTFSNFWMTWVRQAPGKGLEWVANMNQDGSEKYYVDSVKGRFTISRDNAKSSLYLQMNSLRAEDTAVYYCARDREYCISTSCYDDFDYWGQGTLVTVSSASTKGPSVFPLAPCSRSTSESTAALGCLVKDYFPEPVTVSWNSGALTSGVHTFPAVLQSSGLYSLSSVVTVPSSSLGTKTYTCNVDHKPSNTKVDKRVESKYGPPCPPCPAPPVAGPSVFLFPPKPKDTLMISRTPEVTCVVVDVSQEDPEVQFNWYVDGVEVHNAKTKPREEQFNSTYRVVSVLTVLHQDWLNGKEYKCKVSNKGLPSSIEKTISKAKGQPREPQVYTLPPSQEEMTKNQVSLTCLVKGFYPSDIAVEWESNGQPENNYKTTPPVLDSDGSFFLYSRLTVDKSRWQEGNVFSCSVMHEALHNHYTQKSLSLSLGK heavy 2: EVQLVESGGGLVQPGRSLRLSCAASGFTFDDYSMHWVRQAPGKGLEWVSGISWNSGSKGYADSVKGRFTISRDNAKNSLYLQMNSLRAEDTALYYCAKYGSGYGKFYHYGLDVWGQGTTVTVSSASTKGPSVFPLAPCSRSTSESTAALGCLVKDYFPEPVTVSWNSGALTSGVHTFPAVLQSSGLYSLSSVVTVPSSSLGTKTYTCNVDHKPSNTKVDKRVESKYGPPCPPCPAPPVAGPSVFLFPPKPKDTLMISRTPEVTCVVVDVSQEDPEVQFNWYVDGVEVHNAKTKPREEQFNSTYRVVSVLTVLHQDWLNGKEYKCKVSNKGLPSSIEKTISKAKGQPREPQVYTLPPSQEEMTKNQVSLTCLVKGFYPSDIAVEWESNGQPENNYKTTPPVLDSDGSFFLYSRLTVDKSRWQEGNVFSCSVMHEALHNRFTQKSLSLSPGK light: not shown	15	0.707	0.0345	1.1	0.0649	1.4	0.61	1.6	0.103	0.0646	0.328	0.211	0.0706	0.107	0.0234	0.0683	32	2.1	1.2	0.68	EC50, Jurkat/NFATLuc reporter activation with OPM-2 cells [7]: 0.66 nM; 30 nM mBCMA.mFc Bind (RU) [8]: 2.7 RU; binding result [8]: no binding (tested: 30 nM); 30 nM mfBCMA.mFc Bind (RU) [9]: 108 RU; Kd [9]: 0.167 nM; t1/2 [9]: 2.19 h
bsAb25442D bispecific antibody (REGN5459), anti-BCMA x anti-CD3 (bispecific antibody, human IgG4 S228P, kappa, Anti-BCMA arm from mAb21581, anti-CD3 arm and common light chain from mAb7221G20; also called mAb25442D; mAb25442D-A647) heavy 1: EVQLVESGGGLVQPGGSLRLSCAASGFTFSNFWMTWVRQAPGKGLEWVANMNQDGSEKYYVDSVKGRFTISRDNAKSSLYLQMNSLRAEDTAVYYCARDREYCISTSCYDDFDYWGQGTLVTVSSASTKGPSVFPLAPCSRSTSESTAALGCLVKDYFPEPVTVSWNSGALTSGVHTFPAVLQSSGLYSLSSVVTVPSSSLGTKTYTCNVDHKPSNTKVDKRVESKYGPPCPPCPAPPVAGPSVFLFPPKPKDTLMISRTPEVTCVVVDVSQEDPEVQFNWYVDGVEVHNAKTKPREEQFNSTYRVVSVLTVLHQDWLNGKEYKCKVSNKGLPSSIEKTISKAKGQPREPQVYTLPPSQEEMTKNQVSLTCLVKGFYPSDIAVEWESNGQPENNYKTTPPVLDSDGSFFLYSRLTVDKSRWQEGNVFSCSVMHEALHNHYTQKSLSLSLGK heavy 2: EVQLVESGGGLVQPGRSLRLSCAASGFTFDDYSMHWVRQAPGKGLEWVSGISWNSGSIGYADSVKGRFTISRDNAKNSLYLQMNSLRAEDTALYYCAKYGSGYGKFYYYGMDVWGQGTTVTVSSASTKGPSVFPLAPCSRSTSESTAALGCLVKDYFPEPVTVSWNSGALTSGVHTFPAVLQSSGLYSLSSVVTVPSSSLGTKTYTCNVDHKPSNTKVDKRVESKYGPPCPPCPAPPVAGPSVFLFPPKPKDTLMISRTPEVTCVVVDVSQEDPEVQFNWYVDGVEVHNAKTKPREEQFNSTYRVVSVLTVLHQDWLNGKEYKCKVSNKGLPSSIEKTISKAKGQPREPQVYTLPPSQEEMTKNQVSLTCLVKGFYPSDIAVEWESNGQPENNYKTTPPVLDSDGSFFLYSRLTVDKSRWQEGNVFSCSVMHEALHNRFTQKSLSLSPGK light: not shown	558	1.36	0.106	6.47	0.75	11	2.6	7.4	0.301	0.288	1.66	0.3	0.458	0.469	0.0692	0.158	4710	7.9	4.4	2.7	EC50, Jurkat/NFATLuc reporter activation with OPM-2 cells [7]: 2.6 nM; 30 nM mBCMA.mFc Bind (RU) [8]: 2.4 RU; binding result [8]: no binding (tested: 30 nM); 30 nM mfBCMA.mFc Bind (RU) [9]: 97 RU; Kd [9]: 0.148 nM; koff [9]: 7.15e-05 s⁻¹; kon [9]: 482000 M⁻¹ s⁻¹; t1/2 [9]: 2.69 h
